Results on 15 molecules are retold here after patent US20160297884A1 (Pfizer, published 2016).

As a reminder, the Kd is the free concentration of one partner at which half of the binding sites on the other are occupied at equilibrium, for simple one-to-one binding. Usually koff stands for the rate constant with which the complex falls apart. As a reminder, the kon is the second-order rate constant of association.

Changes are numbered by the printed parent chain.

In test [1] the target is T1, cynomolgus monkey BCMA (cynomolgus monkey, UniProt A0A2K5UD97 1-53).
T1 construct: Soluble analyte in SPR; construct not described; also called cyBCMA; Cyno BCMA
The test is described as follows: SPR, IgG immobilised, 37 C. An outline of the steps:
(§1)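 Kinetic titration: huBCMA/cyBCMA 0.08–50 nM (5-fold steps), 2 min association per step, 2 h dissociation after top dose; HBS-T+ + 1 mg/mL BSA, 25 or 37° C; double-referenced, fit 1:1 Langmuir with mass transport.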

Test [2] has as its target T2, Human BCMA (human, UniProt Q02223 1-54, limits assumed).
T2 construct: Soluble analyte in SPR; construct not described; also called huBCMA; B-cell maturation antigen
T2 sequence (looked up): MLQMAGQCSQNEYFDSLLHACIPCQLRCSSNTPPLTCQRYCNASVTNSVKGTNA
The test is described as follows: SPR, IgG immobilised, 37 C. In a few lines:
as §1

For test [3], the target named is T3, Cynomolgus monkey BCMA (cynomolgus monkey).
T3 construct: Soluble analyte in SPR; also called cyBCMA; Cyno BCMA
The test is described as follows: SPR, IgG immobilised, cyno BCMA analyte. In a few lines: as §1
(In general: In SPR one partner is held on a chip, and binding of the other changes the refractive index at the surface.)

For test [4], the target named is T4, Human BCMA (human, UniProt Q02223 1-54, limits assumed).
T4 construct: also called huBCMA; B-cell maturation antigen
T4 sequence (looked up): T2 sequence (looked up)
The test is described as follows: SPR, IgG immobilised, human BCMA analyte. An outline of the steps:
as §1

T1 sequence (A0A2K5UD97 entry or part of it): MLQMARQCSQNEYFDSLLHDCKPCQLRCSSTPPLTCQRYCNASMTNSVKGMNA

B1: L3.PY/H2.DY (antibody, V domains shown)
VH: EVQLLESGGGLVQPGGSLRLSCAASGFTFGSYAMTWVRQAPGKGLEWVSAIDYSGGNTFYADSVKGRFTISRDNSKNTLYLQMNSLRAEDTAVYYCARVSPIASGMDYWGQGTLVTVSS
VL: EIVLTQSPGTLSLSPGERATLSCRASQSVSSSYLAWYQQKPGQAPRLLIYGASSRATGIPDRFSGSGSGTDFTLTISRLEPEDFAVYYCQHYPYPPSFTFGQGTKVEIK
notes: IgG
In the case of B1, in test [1], the Kd was 2.76 nM, the “T ½” value stood at 1.87 min, the koff was determined as 0.00618 s⁻¹ and the kon was 2.24e+06 M⁻¹ s⁻¹. For the same molecule, in test [2], the Kd was found to be 0.53 nM, the “T ½” value was determined as 8.37 min, the koff was determined as 0.00138 s⁻¹ and the kon was 2.6e+06 M⁻¹ s⁻¹.

B2: L3.PY/H2.HA (antibody, V domains shown)
VH: B1 VH with D52S, Y53H, S54A
VL: B1 VL
notes: IgG
Consider B2, for which, in test [1], the Kd is 3.79 nM, the “T ½” value was determined as 1.53 min, the koff was 0.00755 s⁻¹ and the kon stood at 1.99e+06 M⁻¹ s⁻¹. In test [2], the Kd turned out to be 0.6 nM, the “T ½” value came out at 7.89 min, the koff was 0.00147 s⁻¹ and the kon worked out at 2.43e+06 M⁻¹ s⁻¹.

B3: COMBO_Rd4_6nM_C07 (antibody, V domains shown)
VH: EVQLLESGGGLVQPGGSLRLSCAASGFTFSSYPMSWVRQAPGKGLEWVSAIGGSGGSLPYADSVKGRFTISRDNSKNTLYLQMNSLRAEDTAVYYCARYWPMADWGQGTLVTVSS
VL: EIVLTQSPGTLSLSPGERATLSCRASQPISSSYLAWYQQKPGQAPRLLMYDASIRATGIPDRFSGSGSGTDFTLTISRLEPEDFAVYYCQQYQGWPLTFGQGTKVEIK
notes: IgG
In test [3], B3 returned an equilibrium dissociation constant (Kd) of 0.237 nM, a koff of 0.000934 s⁻¹ and a kon of 3.94e+06 M⁻¹ s⁻¹. In test [4], this molecule gave a Kd of 0.035 nM, a koff of 0.000371 s⁻¹ and a kon of 1.05e+07 M⁻¹ s⁻¹.

B4: COMBO_Rd4_6nM_C12 (antibody, V domains shown)
VH: EVQLLESGGGLVQPGGSLRLSCAASGFTFSSYPMSWVRQAPGKGLEWVSAALGSGGSTYYADSVKGRFTISRDNSKNTLYLQMNSLRAEDTAVYYCARYWPMDSWGQGTLVTVS
VL: B3 VL with P28S, I29V, S31A, Q93M, G94S
notes: IgG
In test [3], B4 displayed a Kd of 0.148 nM, a koff of 0.000486 s⁻¹ and a kon of 3.29e+06 M⁻¹ s⁻¹. In test [4], this molecule displayed a Kd of 0.02 nM, a koff of 0.00027 s⁻¹ and a kon of 1.38e+07 M⁻¹ s⁻¹.

B5: COMBO_Rd4_0.6nM_C22 (antibody, V domains shown)
VH: B3 VH with P33A, S35N, G52S, G53D, L58R, P59W, A97T, A103D, D104I
VL: B3 VL with Q27V, P28R, I29V, S32T, Q93M, G94K
notes: IgG; also called COM22
In test [3], B5 showed a Kd of 0.05 nM, a koff of 6.66e-05 s⁻¹ and a kon of 1.34e+06 M⁻¹ s⁻¹. In test [4], this molecule had a Kd of 0.036 nM, a koff of 7.15e-05 s⁻¹ and a kon of 1.97e+06 M⁻¹ s⁻¹.

B6: A02_Rd4_0.6nM_C18 (antibody, V domains shown)
VH: B3 VH with P33A, S35N, I51V, G52L, G53D, L58T, P59Y, A103S, D104L
VL: B3 VL with P28S, I29V, S31E, S32L, Q93F
notes: IgG
B6: in test [3], the Kd turned out to be 0.197 nM, the koff was determined as 0.000639 s⁻¹ and the kon turned out to be 3.24e+06 M⁻¹ s⁻¹. In test [4], this molecule returned a Kd of 0.048 nM, a koff of 0.000229 s⁻¹ and a kon of 4.73e+06 M⁻¹ s⁻¹.

B7: P5A2_VHVL (antibody, V domains shown)
VH: B3 VH with P33A, S35N, G52S, G53D, L58T, P59Y, A103D, D104I
VL: B3 VL with P28S, I29V, Q93G, G94S
notes: IgG
In test [3], B7 gave a Kd of 10.2 nM, a koff of 0.0164 s⁻¹ and a kon of 1.61e+06 M⁻¹ s⁻¹. Besides, in test [4], the affinity, expressed as Kd, was 5.57 nM; the koff is 0.0387 s⁻¹; the kon was found to be 6.96e+06 M⁻¹ s⁻¹.

B8: COMBO_Rd4_6nM_C11 (antibody, V domains shown)
VH: B3 VH with P59G, A103D, D104S
VL: B3 VL with P28S, I29V, S31P, S32L, Q93K, G94A
notes: IgG
As for B8, in test [3], the Kd came out at 0.156 nM, the koff was determined as 0.000412 s⁻¹ and the kon came to 2.64e+06 M⁻¹ s⁻¹. Besides, in test [4], binding was put at a Kd of 0.018 nM, the koff is 0.000124 s⁻¹ and the kon was 6.74e+06 M⁻¹ s⁻¹.

B9: COMBO_Rd4_6nM_C25 (antibody, V domains shown)
VH: B3 VH with L58T, P59Y, A103D, D104P
VL: B3 VL with P28S, I29V, S32P, G94S
notes: IgG
With B9, in test [3], the Kd came to 0.079 nM, the koff was 0.000226 s⁻¹ and the kon worked out at 2.85e+06 M⁻¹ s⁻¹. In test [4], this molecule gave a Kd of 0.014 nM, a koff of 0.000113 s⁻¹ and a kon of 7.98e+06 M⁻¹ s⁻¹.

B10: COMBO_Rd4_6nM_C21 (antibody, V domains shown)
VH: B3 VH with A103D, D104S
VL: B3 VL with P28S, I29V, S31A, S32A, Q93M, G94C
notes: IgG
In test [3], B10 gave a Kd of 0.078 nM, a koff of 0.000248 s⁻¹ and a kon of 3.17e+06 M⁻¹ s⁻¹. In test [4], this molecule registered a Kd of 0.006 nM, a koff of 7.34e-05 s⁻¹ and a kon of 1.17e+07 M⁻¹ s⁻¹.

B11: P5C1_VHVL (antibody, V domains shown)
VH: B3 VH with L58T, P59Y, A103D, D104S
VL: B3 VL with P28S, I29V, S32T, M49I, I54S, T57P, Q93S, G94T, W95S
notes: IgG; also called PC1
In the case of B11, in test [3], the affinity, expressed as Kd, was 15.2 nM; the koff is 0.0538 s⁻¹; the kon turned out to be 3.53e+06 M⁻¹ s⁻¹. In test [4], this molecule displayed a Kd of 5.99 nM, a koff of 0.0692 s⁻¹ and a kon of 1.16e+07 M⁻¹ s⁻¹.

B12: COMBO_Rd4_6nM_C09 (antibody, V domains shown)
VH: B3 VH with G52F, G53A, L58T, P59Y, A103D, D104S
VL: B3 VL with P28S, I29V, S31A, S32Q, G94A
notes: IgG
On to B12, for which, in test [3], the Kd turned out to be 0.134 nM, the koff came to 0.000318 s⁻¹ and the kon was 2.37e+06 M⁻¹ s⁻¹. For the same molecule, in test [4], binding was characterised by a dissociation constant (Kd) of 0.016 nM, the koff came out at 0.000143 s⁻¹ and the on-rate (kon) was 8.85e+06 M⁻¹ s⁻¹.

B13: COMBO_Rd4_6nM_C10 (antibody, V domains shown)
VH: B3 VH with L58I, P59H, A103D, D104S
VL: B3 VL with P28S, I29V, L34W, A35G, G94C
notes: IgG
In test [3], B13 came in with a Kd of 0.105 nM, a koff of 0.00016 s⁻¹ and a kon of 1.52e+06 M⁻¹ s⁻¹. Also, in test [4], the Kd worked out at 0.018 nM, the koff was determined as 9.72e-05 s⁻¹ and the kon was 5.47e+06 M⁻¹ s⁻¹.

B14: COMBO_Rd4_6nM_C08 (antibody, V domains shown)
VH: B3 VH with G56T, S57W, L58T, P59Y, A103D, D104S
VL: B3 VL with P28S, I29V, G94K
notes: IgG
In test [3], B14 gave a Kd of 0.14 nM, a koff of 0.000428 s⁻¹ and a kon of 3.06e+06 M⁻¹ s⁻¹. In test [4], this molecule gave a Kd of 0.019 nM, a koff of 0.000169 s⁻¹ and a kon of 8.99e+06 M⁻¹ s⁻¹.

B15: COMBO_Rd4_6nM_C22 (antibody, V domains shown)
VH: B3 VH with P33A, S35N, I51C, G52L, G53D, L58T, P59Y, A103D, D104S
VL: B3 VL with P28S, I29V
notes: IgG
For B15, in test [3], the Kd was 0.972 nM, the koff was determined as 0.00165 s⁻¹ and the kon is 1.7e+06 M⁻¹ s⁻¹. In test [4], this molecule had a Kd of 0.256 nM, a koff of 0.000775 s⁻¹ and a kon of 3.03e+06 M⁻¹ s⁻¹.
